Reference: patent US20260209317A1 (US Dept. of Health and Human Services, published 2026)
Where two headings read alike, the source gives them in different places.

Key:
[1] = target: T1, SARS-CoV-2 Omicron BA.2.75.2 spike protein (on pseudotyped lentivirus) (SARS-CoV-2); assay: cell-based or functional assay
[2] = target: T2, SARS-CoV-2 Omicron BQ.1.1 spike protein (on pseudotyped lentivirus) (SARS-CoV-2, UniProt P0DTC2 14-1273); assay: cell-based or functional assay
[3] = target: T3, SARS-CoV-2 D614G spike protein (on pseudotyped lentivirus) (SARS-CoV-2, UniProt P0DTC2 14-1273); assay: cell-based or functional assay
[4] = target: T4, SARS-CoV-2 Omicron XBB spike protein (on pseudotyped lentivirus) (SARS-CoV-2, UniProt P0DTC2 14-1273); assay: cell-based or functional assay
[5] = target: T5, SARS-CoV-2 Omicron BJ.1 spike protein (on pseudotyped lentivirus) (SARS-CoV-2, UniProt P0DTC2 14-1273); assay: cell-based or functional assay
[6] = target: T6, SARS-CoV-2 Omicron BA.2 spike protein (on pseudotyped lentivirus) (SARS-CoV-2); assay: cell-based or functional assay
[7] = target: T7, SARS-CoV-2 B.1.351 spike protein (on pseudotyped lentivirus) (SARS-CoV-2); assay: cell-based or functional assay
[8] = target: T8, SARS-CoV-2 P.1 spike protein (on pseudotyped lentivirus) (SARS-CoV-2); assay: cell-based or functional assay
[9] = target: T9, SARS-CoV-2 Omicron BA.4.6 spike protein (on pseudotyped lentivirus) (SARS-CoV-2); assay: cell-based or functional assay
[10] = target: T10, SARS-CoV-2 Omicron BA.4/BA.5 spike protein (on pseudotyped lentivirus) (SARS-CoV-2, UniProt P0DTC2 14-1273); assay: cell-based or functional assay
[11] = target: T11, SARS-CoV-2 B.1.1.7 spike protein (on pseudotyped lentivirus) (SARS-CoV-2); assay: cell-based or functional assay
[12] = target: T12, SARS-CoV-2 Omicron BA.2.75 spike protein (on pseudotyped lentivirus) (SARS-CoV-2, UniProt P0DTC2 14-1273); assay: cell-based or functional assay
[13] = target: T13, SARS-CoV-2 B.1.617.2 spike protein (on pseudotyped lentivirus) (SARS-CoV-2); assay: cell-based or functional assay
[14] = target: T1, SARS-CoV-2 Omicron BA.2.75.2 spike …; assay: cell-based or functional assay; remark: listed apart in the source
[15] = target: T2, SARS-CoV-2 Omicron BQ.1.1 spike protein …; assay: cell-based or functional assay; remark: listed apart in the source
[16] = target: T3, SARS-CoV-2 D614G spike protein (on …); assay: cell-based or functional assay; remark: listed apart in the source
[17] = target: T4, SARS-CoV-2 Omicron XBB spike protein …; assay: cell-based or functional assay; remark: listed apart in the source
[18] = target: T5, SARS-CoV-2 Omicron BJ.1 spike protein …; assay: cell-based or functional assay; remark: listed apart in the source
[19] = target: T6, SARS-CoV-2 Omicron BA.2 spike protein …; assay: cell-based or functional assay; remark: listed apart in the source
[20] = target: T7, SARS-CoV-2 B.1.351 spike protein (on …); assay: cell-based or functional assay; remark: listed apart in the source
[21] = target: T8, SARS-CoV-2 P.1 spike protein (on …); assay: cell-based or functional assay; remark: listed apart in the source
[22] = target: T9, SARS-CoV-2 Omicron BA.4.6 spike protein …; assay: cell-based or functional assay; remark: listed apart in the source
[23] = target: T10, SARS-CoV-2 Omicron BA.4/BA.5 spike …; assay: cell-based or functional assay; remark: listed apart in the source
[24] = target: T11, SARS-CoV-2 B.1.1.7 spike protein (on …); assay: cell-based or functional assay; remark: listed apart in the source
[25] = target: T12, SARS-CoV-2 Omicron BA.2.75 spike …; assay: cell-based or functional assay; remark: listed apart in the source
[26] = target: T13, SARS-CoV-2 B.1.617.2 spike protein (on …); assay: cell-based or functional assay; remark: listed apart in the source
[27] = target: SARS-CoV-2 omicron-BA.1 RBD protein (SARS-CoV-2, UniProt P0DTC2 319-541)

B1: B2-269.1 (antibody, V domains shown)
VH: EVQLVESGGGLVQPGGSLRLSCAASGITVSSNYMSWVRQPPGKGLDWVSLIFSGGSTYYADSVKGRFTISRDNSKNTLYLQMNSLRAEDTAVYYCARVGVAVAGTDYDIWGQGTMVTVSS
VL: DIQMTQSPSSLSASVGDRVTITCQASQDINKYLNWYQQKPGKAPKLLIYDASNLETGVPSRFSGSGSGTDFTFTISSLQPEDIATYYCLHYENLPLSFGGGTKVEIK
neutralization IC50 [1]: 0.709 mg/L | neutralization IC80 [1]: 2.5 mg/L | neutralization IC50 [2]: 0.126 mg/L | neutralization IC80 [2]: 0.576 mg/L | neutralization IC50 [3]: 0.017 mg/L | neutralization IC80 [3]: 0.039 mg/L | neutralization IC50 [4]: 0.179 mg/L | neutralization IC80 [4]: 3.56 mg/L | neutralization IC50 [5]: 0.001 mg/L | neutralization IC80 [5]: 0.008 mg/L | neutralization IC50 [6]: 0.01 mg/L | neutralization IC80 [6]: 0.032 mg/L | neutralization IC50 [7]: 0.007 mg/L | neutralization IC80 [7]: 0.022 mg/L | neutralization IC50 [8]: 0.01 mg/L | neutralization IC80 [8]: 0.025 mg/L | neutralization IC50 [9]: 0.011 mg/L | neutralization IC80 [9]: 0.031 mg/L | neutralization IC50 [10]: 0.013 mg/L | neutralization IC80 [10]: 0.036 mg/L | neutralization IC50 [11]: 0.02 mg/L | neutralization IC80 [11]: 0.034 mg/L | neutralization IC50 [12]: 1.14 mg/L | neutralization IC80 [12]: 3.54 mg/L | neutralization IC50 [13]: 0.028 mg/L | neutralization IC80 [13]: 0.054 mg/L | neutralization IC50 [14]: < 1.1 mg/L | neutralization IC50 [15]: < 0.1 mg/L | neutralization IC50 [16]: < 0.1 mg/L | neutralization IC50 [17]: < 1.1 mg/L | neutralization IC50 [18]: < 0.1 mg/L | neutralization IC50 [19]: < 0.1 mg/L | neutralization IC50 [20]: < 0.1 mg/L | neutralization IC50 [21]: < 0.1 mg/L | neutralization IC50 [22]: < 0.1 mg/L | neutralization IC50 [23]: < 0.1 mg/L | neutralization IC50 [24]: < 0.1 mg/L | neutralization IC50 [25]: < 1.1 mg/L | neutralization IC50 [26]: < 0.1 mg/L | EC50 (read off the curve) [27]: ~0.04 mg/L
